Assay results reported in patent US11230581B2, “Peptides and combination of peptides for use in immunotherapy against ovarian cancer and other cancers” (Immatics Biotechnologies GmbH, priority 2015, dated 2022).

molecular target: HLA-A*02:01 (Homo sapiens, UniProt P04439, D140Y/D185E/D98H/E176V/E277Q/G131W/G231S/I119V/I121R/I166T/I218V/L300P/L318F/N151K/N90K/P208A/P217A/Q86G/Q94H/R138H/R169H/T345S); assay: MHC binding assay (UV-ligand exchange, β2m ELISA, peptide exchange yield); conditions: binding of HLA-class I restricted peptides to HLA-A*02:01, UV-ligand exchange
How it was run: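 Yield of stabilized complexes quantified via the β2m light chain in an ELISA (streptavidin capture, 100-fold diluted monomers, HRP anti-β2m 2 ug/ml at 37 °C, TMB, A450). The complexes come from UV-triggered replacement of a photocleavable ligand by the candidate peptide.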

Peptide exchange (MHC class I binding score, peptide exchange yield), “++” (≥20% = ++):
319 (SLEPQIQPV; listed as Homo sapiens) [compound 319], 333 (FLPDANSSV; listed as Homo sapiens) [compound 333], 353 (YLFEMDSSL; listed as Homo sapiens) [compound 353], 354 (LILEGVDTV; listed as Homo sapiens) [compound 354], 355 (SIQQSIERLLV; listed as Homo sapiens) [compound 355], 363 (KVLDVSDLESV; listed as Homo sapiens) [compound 363], 372 (TMLLNIPLV; listed as Homo sapiens) [compound 372], 373 (SLLEDKGLAEV; listed as Homo sapiens) [compound 373], 374 (FLLQQHLISA; listed as Homo sapiens) [compound 374], 375 (SLTETIEGV; listed as Homo sapiens) [compound 375], 376 (AMFESSQNVLL; listed as Homo sapiens) [compound 376], 377 (FLLDSSASV; listed as Homo sapiens) [compound 377], 379 (IMEGTLTRV; listed as Homo sapiens) [compound 379], 380 (TLIEDEIATI; listed as Homo sapiens) [compound 380], 381 (FIDEAYVEV; listed as Homo sapiens) [compound 381], 382 (ALQNYIKEA; listed as Homo sapiens) [compound 382], 385 (SLLEQGLVEA; listed as Homo sapiens) [compound 385]

Peptide exchange (MHC class I binding score, peptide exchange yield), “+++” (≥50 = +++):
322 (TLMTSLPAL; listed as Homo sapiens) [compound 322], 324 (FLYDEIEAEV; listed as Homo sapiens) [compound 324], 325 (FIMPATVADATAV; listed as Homo sapiens) [compound 325], 326 (FLPEALDFV; listed as Homo sapiens) [compound 326], 327 (GLAPFTEGISFV; listed as Homo sapiens) [compound 327], 328 (ALNDQVFEI; listed as Homo sapiens) [compound 328], 330 (QLALKVEGV; listed as Homo sapiens) [compound 330], 331 (KVDTVWVNV; listed as Homo sapiens) [compound 331], 332 (YLISELEAA; listed as Homo sapiens) [compound 332], 334 (TLTKVLVAL; listed as Homo sapiens) [compound 334], 335 (YSLSSVVTV; listed as Homo sapiens) [compound 335], 336 (ILLTAIVQV; listed as Homo sapiens) [compound 336], 341 (SQIALNEKLVNL; listed as Homo sapiens) [compound 341], 342 (HIYDKVMTV; listed as Homo sapiens) [compound 342], 343 (SLLEVNEESTV; listed as Homo sapiens) [compound 343], 344 (YLQDQHLLLTV; listed as Homo sapiens) [compound 344], 345 (VIWKALIHL; listed as Homo sapiens) [compound 345], 346 (LLDSKVPSV; listed as Homo sapiens) [compound 346], 350 (ALLDVTHSELTV; listed as Homo sapiens) [compound 350], 351 (SLIPNLRNV; listed as Homo sapiens) [compound 351], 352 (SLLELLHIYV; listed as Homo sapiens) [compound 352], 356 (KLLGKLPEL; listed as Homo sapiens) [compound 356], 357 (SMHDLVLQV; listed as Homo sapiens) [compound 357], 359 (YLLPESVDL; listed as Homo sapiens) [compound 359], 361 (ALYELEGTTV; listed as Homo sapiens) [compound 361], 362 (TLYGLSVLL; listed as Homo sapiens) [compound 362], 364 (LLQNEQFEL; listed as Homo sapiens) [compound 364], 365 (YVIDQGETDVYV; listed as Homo sapiens) [compound 365], 366 (RLLDMGETDLML; listed as Homo sapiens) [compound 366], 367 (SLQNHNHQL; listed as Homo sapiens) [compound 367], 369 (GLFPEHLIDV; listed as Homo sapiens) [compound 369], 370 (SLLQDLVSV; listed as Homo sapiens) [compound 370], 378 (ALGYFVPYV; listed as Homo sapiens) [compound 378], 383 (ALLELENSVTL; listed as Homo sapiens) [compound 383], 384 (ILFANPNIFV; listed as Homo sapiens) [compound 384], 386 (ILFRYPLTI; listed as Homo sapiens) [compound 386], 388 (SLTIDGIRYV; listed as Homo sapiens) [compound 388]

Peptide exchange (MHC class I binding score, peptide exchange yield), “++++” (≥75% = ++++):
320 (KMFEFVEPLL; listed as Homo sapiens) [compound 320], 321 (GLFEDVTQPGILL; listed as Homo sapiens) [compound 321], 329 (FLVTLNNVEV; listed as Homo sapiens) [compound 329], 337 (HLLSELEAAPYL; listed as Homo sapiens) [compound 337], 339 (GLWEIENNPTVKA; listed as Homo sapiens) [compound 339], 340 (ALLSMTFPL; listed as Homo sapiens) [compound 340], 347 (SLFKHDPAAWEA; listed as Homo sapiens) [compound 347], 348 (ILLDVKTRL; listed as Homo sapiens) [compound 348], 349 (SLTEYLQNV; listed as Homo sapiens) [compound 349], 358 (ALDEYTSEL; listed as Homo sapiens) [compound 358], 371 (FLQAHLHTA; listed as Homo sapiens) [compound 371], 387 (ALFQATAEV; listed as Homo sapiens) [compound 387]
